Usually Kd stands for the free concentration of one partner at which half of the binding sites on the other are occupied at equilibrium, for simple one-to-one binding. Low readings indicate tighter binding, high ones weaker binding.

Substitutions are numbered along the chain they refer to.

B1: VH5/Vk0 (antibody, IgG1, V domains shown)
VH: QVQLVQSGAEVKKPGSSVKVSCQGSGYSFPTHWITWVRQAPGQGLEWMGTIDPTDSYNFYGPSFQGRVTITADSSTSTAYMELSSLRSEDTAVYYCARDGNYYDSRGYYYDTFDMWGQGTLVTVSS
VL: DIQMTQSPSFLSASVGDRVTITCRASQGISTYLAWYQQKPGTAPKLLIYSASTLESGVPSRFSGSGSGTDFTLTISSLQPEDSATYYCQQADSFPLTFGGGTKVEIK
notes: Full IgG1/kappa expressed in HEK 293 EBNA cells
B2: VH2/Vk0 (antibody, IgG1, V domains shown)
VH: EVQLVQSGAEVKKPGESLKISCKGSGYSFPTHWITWVRQMPGKGLEWMGTIDPTDSYNFYGPSFQGQVTISADKSISTAYLQWSSLKASDTAMYYCARDGNYYDSRGYYYDTFDMWGQGTLVTVSS
VL: B1 VL
notes: as for B1
B3: VH0/Vk2 (antibody, IgG1, V domains shown)
VH: B2 VH with E1Q, K19R, K23Q, Q67H, K74S, I76S
VL: B1 VL with F10S, T42K, S83F
notes: as for B1
B4: VH0/Vk0 (antibody, IgG1, V domains shown)
VH: B2 VH with E1Q, K19R, K23Q, Q67H, K74S, I76S
VL: B1 VL
notes: Full IgG1/kappa with the variable domains of 1E4; also called 1E4 antibody variant including the constant domain where the residues were substituted
B5: VH2/Vk2 (antibody, IgG1, V domains shown)
VH: B2 VH
VL: B1 VL with F10S, T42K, S83F
notes: as for B1
B6: VH6/Vk0 (antibody, IgG1, V domains shown)
VH: B1 VH with Q23K, G24A, S74K
VL: B1 VL
notes: as for B1
B7: VH5/Vk2 (antibody, IgG1, V domains shown)
VH: B1 VH
VL: B1 VL with F10S, T42K, S83F
notes: as for B1
B8: VH6/Vk2 (antibody, IgG1, V domains shown)
VH: B1 VH with Q23K, G24A, S74K
VL: B1 VL with F10S, T42K, S83F
notes: as for B1
B9: VH4/Vk5 (antibody, IgG1, V domains shown)
VH: B1 VH with V93M
VL: EIVLTQSPGTLSLSPGERATLSCRASQGISTYLAWYQQKPGQAPRLLIYSASTLESGIPDRFSGSGSGTDFTLTISRLEPEDFATYYCQQADSFPLTFGGGTKVEIK
notes: as for B1

In one assay the target is c-Met protein receptors on HUVEC (human, UniProt P08581 25-1390). Nature of the assay: cell-based or functional assay.
Chain of c-Met protein receptors on HUVEC (P08581 25-1390): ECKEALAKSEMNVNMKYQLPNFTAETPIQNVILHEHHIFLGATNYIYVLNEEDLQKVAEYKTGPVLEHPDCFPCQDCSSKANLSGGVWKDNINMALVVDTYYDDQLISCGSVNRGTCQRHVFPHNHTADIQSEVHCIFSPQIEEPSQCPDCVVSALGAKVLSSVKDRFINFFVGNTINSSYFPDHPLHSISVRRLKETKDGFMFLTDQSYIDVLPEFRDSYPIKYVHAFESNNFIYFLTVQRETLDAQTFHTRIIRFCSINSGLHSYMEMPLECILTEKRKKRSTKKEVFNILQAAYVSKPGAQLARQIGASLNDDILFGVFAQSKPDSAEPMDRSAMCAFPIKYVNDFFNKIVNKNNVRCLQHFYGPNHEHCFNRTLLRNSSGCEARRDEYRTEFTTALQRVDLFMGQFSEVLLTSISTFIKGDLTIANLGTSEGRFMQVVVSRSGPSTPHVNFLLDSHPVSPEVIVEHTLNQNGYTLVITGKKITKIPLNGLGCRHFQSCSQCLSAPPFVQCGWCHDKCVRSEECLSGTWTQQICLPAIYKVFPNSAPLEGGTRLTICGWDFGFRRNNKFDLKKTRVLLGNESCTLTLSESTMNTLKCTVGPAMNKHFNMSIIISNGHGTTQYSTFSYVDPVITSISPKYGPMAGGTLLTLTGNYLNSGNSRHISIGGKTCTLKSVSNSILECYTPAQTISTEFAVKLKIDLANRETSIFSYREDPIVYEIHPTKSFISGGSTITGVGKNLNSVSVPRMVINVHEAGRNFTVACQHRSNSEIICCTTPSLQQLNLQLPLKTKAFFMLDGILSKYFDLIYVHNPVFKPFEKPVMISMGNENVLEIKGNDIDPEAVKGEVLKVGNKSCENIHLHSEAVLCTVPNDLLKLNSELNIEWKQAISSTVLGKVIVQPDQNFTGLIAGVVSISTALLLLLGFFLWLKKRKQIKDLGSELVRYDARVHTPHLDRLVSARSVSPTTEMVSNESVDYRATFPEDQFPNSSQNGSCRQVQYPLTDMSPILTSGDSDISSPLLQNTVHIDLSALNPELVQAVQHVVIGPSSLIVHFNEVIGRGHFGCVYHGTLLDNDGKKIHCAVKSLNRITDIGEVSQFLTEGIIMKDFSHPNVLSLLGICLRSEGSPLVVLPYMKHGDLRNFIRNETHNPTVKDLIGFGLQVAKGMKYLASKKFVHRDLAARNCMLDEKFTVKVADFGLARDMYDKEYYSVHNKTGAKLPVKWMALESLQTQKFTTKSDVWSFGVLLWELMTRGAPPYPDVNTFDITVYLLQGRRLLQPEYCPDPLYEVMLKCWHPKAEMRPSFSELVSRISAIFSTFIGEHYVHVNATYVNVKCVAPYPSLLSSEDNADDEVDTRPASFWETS
As for B1, the “Index 1 (Relative Migration divided by the Average 157.5), HUVEC migration assay” value amounted to 0.813; the “Index 2 (Relative Migration relative to VH0/Vk0), HUVEC migration assay” value was 0.855; the “Relative Migration (%), HUVEC migration assay, 90 ng/ml” value (shortened to “Relative Migration (%)”) was found to be 128%.
Consider B2, for which the “Index 1 (Relative Migration divided by the Average 157.5), HUVEC migration assay” value came to 0.993; the “Index 2 (Relative Migration relative to VH0/Vk0), HUVEC migration assay” value came out at 1.04; the “Relative Migration (%)” value is 156%.
In the case of B3, the “Index 1 (Relative Migration divided by the Average 157.5), HUVEC migration assay” value amounted to 1.03; the “Index 2 (Relative Migration relative to VH0/Vk0), HUVEC migration assay” value came out at 1.09; the “Relative Migration (%)” value is 163%.
The like results for B4 were, in that order, 0.951, 1 and 150%.
In the case of B5, the “Index 1 (Relative Migration divided by the Average 157.5), HUVEC migration assay” value was 1.12; the “Index 2 (Relative Migration relative to VH0/Vk0), HUVEC migration assay” value was 1.18; the “Relative Migration (%)” value was found to be 176%.
On to B6, for which the “Index 1 (Relative Migration divided by the Average 157.5), HUVEC migration assay” value amounted to 0.962; the “Index 2 (Relative Migration relative to VH0/Vk0), HUVEC migration assay” value is 1.01; the “Relative Migration (%)” value came to 152%.
As for B7, the “Index 1 (Relative Migration divided by the Average 157.5), HUVEC migration assay” value was determined as 1.12; the “Index 2 (Relative Migration relative to VH0/Vk0), HUVEC migration assay” value turned out to be 1.18; the “Relative Migration (%)” value stood at 176%.
For B8, in that order: 0.979, 1.03 and 154%.
For the molecule B9, the “Index 1 (Relative Migration divided by the Average 157.5), HUVEC migration assay” value came out at 1.09; the “Index 2 (Relative Migration relative to VH0/Vk0), HUVEC migration assay” value came out at 1.14; the “Relative Migration (%)” value amounted to 171%.

For another assay, the target named is T1, human c-Met (Sino Biological) (human, UniProt P08581 25-932, limits assumed).
T1 construct: Analyte in the Biacore assay; also called antigen (c-Met); printed as "human c-Met antibody (Sino Biological, Beijing, China)"
T1 sequence (P08581 25-932 limits assumed): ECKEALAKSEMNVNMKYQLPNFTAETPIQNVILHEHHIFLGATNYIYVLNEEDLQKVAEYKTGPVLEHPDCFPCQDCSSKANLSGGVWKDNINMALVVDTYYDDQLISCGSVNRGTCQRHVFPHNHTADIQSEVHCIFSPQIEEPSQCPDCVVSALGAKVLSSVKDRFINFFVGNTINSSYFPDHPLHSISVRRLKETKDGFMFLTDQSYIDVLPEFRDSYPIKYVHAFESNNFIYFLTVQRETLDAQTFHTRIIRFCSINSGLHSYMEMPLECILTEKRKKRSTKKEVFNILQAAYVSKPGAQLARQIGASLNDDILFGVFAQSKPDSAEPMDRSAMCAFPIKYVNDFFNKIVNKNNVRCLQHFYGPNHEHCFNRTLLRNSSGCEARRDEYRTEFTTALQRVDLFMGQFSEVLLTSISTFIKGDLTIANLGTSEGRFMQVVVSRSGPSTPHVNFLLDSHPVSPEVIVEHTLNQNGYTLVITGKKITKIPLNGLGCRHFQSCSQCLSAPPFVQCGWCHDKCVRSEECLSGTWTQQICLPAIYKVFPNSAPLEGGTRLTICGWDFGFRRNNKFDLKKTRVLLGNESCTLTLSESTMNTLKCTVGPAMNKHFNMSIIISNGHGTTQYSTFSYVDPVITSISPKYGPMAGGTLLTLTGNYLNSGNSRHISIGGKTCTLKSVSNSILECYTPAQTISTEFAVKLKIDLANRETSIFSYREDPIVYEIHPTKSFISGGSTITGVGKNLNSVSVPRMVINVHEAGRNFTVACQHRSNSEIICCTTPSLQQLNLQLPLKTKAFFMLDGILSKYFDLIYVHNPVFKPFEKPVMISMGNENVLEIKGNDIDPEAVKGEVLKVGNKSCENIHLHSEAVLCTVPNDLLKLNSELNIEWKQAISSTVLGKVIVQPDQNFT
Nature of the assay: derived from the Biacore KD, normalised to VH0/Vk0. As for the experimental part:
(§1) The candidate antibodies selected in Example 4 were measured for binding affinity for the antigen (c-Met) with the aid of Biacore. […] The anti-c-Met antibodies to be analyzed were immobilized on Protein A CM5 chips (GE Healthcare, Little Chalfont, UK) through which human c-Met antibody (Sino Biological, Beijing, China) with various concentrations ranging 0.15 to 2 nM was allowed to pass, thereby acquiring sensorgrams. On the basis of the acquired sensorgrams, association constants kₒₙ and dissociation constants koff were measured to calculate Ko value, the ratio koff/kₒₙ.
(§2) In order to select a final candidate group from the 21 candidate antibodies selected in Example 4, comparison was made according to criteria specified into expression level, binding affinity for antigen, thermal stability, and biopotency. As a rule, the expression level is considered to be the most important index when time and cost are taken into consideration from a point of view of production. […] Thereafter, degrees of improvement in each of the remaining candidate antibodies compared to the reference antibody (VH0/Vk0) were digitized with regard to the selected indices. For normalization, analysis index measurements for individual candidate antibodies were divided by average values to give ratios (index 1) which were in turn divided by the measurement for the antibody VH0/Vk0 (index 2) (Tables 6 to 9). In addition, the measurements for the four indices were multiplied for comprehensive comparison of the four indices of the candidate antibodies. The final results (index 3) are listed in a descending order in Table 10.
Take B1: the “Index 2 (binding affinity, inverse KD relative to VH0/Vk0)” value was 1.48.
Regarding B2, the “Index 2 (binding affinity, inverse KD relative to VH0/Vk0)” value was determined as 0.974.
For B3, the “Index 2 (binding affinity, inverse KD relative to VH0/Vk0)” value worked out at 1.02.
In the case of B4, the “Index 2 (binding affinity, inverse KD relative to VH0/Vk0)” value amounted to 1.
B5: the “Index 2 (binding affinity, inverse KD relative to VH0/Vk0)” value was 1.04.
With B6, the “Index 2 (binding affinity, inverse KD relative to VH0/Vk0)” value was 1.26.
B7: the “Index 2 (binding affinity, inverse KD relative to VH0/Vk0)” value turned out to be 1.24.
Turning to B8, the “Index 2 (binding affinity, inverse KD relative to VH0/Vk0)” value came out at 1.18.
B9: the “Index 2 (binding affinity, inverse KD relative to VH0/Vk0)” value is 0.989.

In the next assay the target is T1, human c-Met (Sino Biological). Nature of the assay: derived from the Biacore KD, printed 'Average' 3.52 x10^-10 M divided by the KD. As for the experimental part: as §1, §2
For orientation: Surface plasmon resonance follows binding to a sensor surface in real time, without labels.
In the case of B1, the “Index 1 (binding affinity, inverse KD relative to the Average 3.52)” value turned out to be 1.
As for B2, the “Index 1 (binding affinity, inverse KD relative to the Average 3.52)” value amounted to 0.659.
The same measure, in the same setting: for B3 the value was 0.688; for B4, 0.677; for B5, 0.701.
For the molecule B6, the “Index 1 (binding affinity, inverse KD relative to the Average 3.52)” value is 0.85.
As to B7, the “Index 1 (binding affinity, inverse KD relative to the Average 3.52)” value turned out to be 0.838.
Take B8: the “Index 1 (binding affinity, inverse KD relative to the Average 3.52)” value was 0.8.
Consider B9, for which the “Index 1 (binding affinity, inverse KD relative to the Average 3.52)” value came to 0.669.

The target is the same in the next assay. Nature of the assay: SPR (Biacore T200), IgG captured on Protein A CM5 chip, c-Met 0.15-2 nM as analyte. As for the experimental part: as §1
Take B1: the Kd turned out to be 0.352 nM and the “Relative KD to VMDO2 VH0/Vk0” value is 0.68.
For B2, binding was characterised by a dissociation constant (Kd) of 0.534 nM and the “Relative KD to VMDO2 VH0/Vk0” value is 1.03.
The like results for B3 were, in that order, 0.512 nM and 0.98.
As to B4, the affinity, expressed as Kd, was 0.52 nM and the “Relative KD to VMDO2 VH0/Vk0” value came out at 1.
For B5, in that order: 0.502 nM and 0.97.
Consider B6, for which the dissociation constant Kd stood at 0.414 nM and the “Relative KD to VMDO2 VH0/Vk0” value is 0.8.
Consider B7, for which the affinity, expressed as Kd, was 0.42 nM and the “Relative KD to VMDO2 VH0/Vk0” value was found to be 0.81.
As to B8, the affinity, expressed as Kd, was 0.44 nM and the “Relative KD to VMDO2 VH0/Vk0” value turned out to be 0.85.
For the molecule B9, the equilibrium dissociation constant (Kd) came to 0.526 nM and the “Relative KD to VMDO2 VH0/Vk0” value amounted to 1.01.
